Test results as given in the domain aggregation screens of Martell et al. (2025).

Assay: soluble fraction after stress (log2 fold change); higher = more stays soluble; pooled small domains, quantitative proteomics
Conditions: stress: 50 degC
In short: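 The stress applied to every library was 50°C. These custom libraries of small protein domains were pooled and measured at high throughput with quantitative proteomics as the read-out. Aggregation propensity is expressed as the base-two logarithm of the fold change in how much of each protein remains soluble. The higher the value, the more of that protein stays in solution.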

Sequence | soluble fraction (log2)
HMKPVPPLNGTSLRDLALGYAGRYATTAARLKHYLQRKLRERGWGGEDEPDLDGLVARLVELGYVNDEVF | -0.102
HMKQAINFSDLNSLEEGLGIAIRQKWNEVSINDVPEDKIELVEDWINNNRGKYKGINISIGSTY | 0.167
HMKQAVESAEAIFEEIARIKKLSLVKSEAEEIARKTGLQKFTIASQLLKNQHAYEMDESEIASLWDKKI | 0.0237
HMKQDFVYNGFVEAKGDDLMVQINYKGETYYVTEGESFGGFTVKSANKDKVVLSGQGGAETVLEFR | -0.106
HMKQENRLKILRKEKGLTQTKLANEIGVSKRTIIAWENDERQIKPDKAQQLADYFGVKEGYLLGYTNN | 0.132
HMKQESSEDLLNEVIDKVIDSNPDEKNRLLDGELKLVSFFMGQVMKETKGKANPGVINGLIKKKFNI | -0.675
HMKQISNTDELEAMIQKIIEDNSQQVEKFRSGNEKLFGWFVGQVMKNTQGAANPKVVNEILKKSLK | 0.177
HMKQISNTDELESMAKNIIQENPDQVSKFKNGNEKLFGWFVGQMMKSTGGTANPKVVNEILKNLLN | 0.152
HMKQLIGYSVIDIKMGKLGEISFVNSKTAQALIHVSKDGKGFYFPWHKQFVKNIDAEKGIMEVEIPKEFLD | -0.237
HMKQLNKRQNDILSFAEKQGYVSVENLAKLFSVTQQTIRRDINYLSDNELLVRTHGGAYYSS | -0.902
HMKQNRNLPVQIINNGKIIESVMTEFNLDIDWVYSEAKRLGYKNIKDIFYAGINRDGQFFIVPLF | -0.448
HMKQNVEAVIKERAIEKARAQVKAVSTHMALEAQSLSKEQLEFEIERIAAQIIDKMPSDFWND | -0.386
HMKQPNFTVIETKILELLFQKDLSSREMQEILKISKDNLIFALQNLLEQEKIVLQTSNTYTVN | -1.15
HMKQPVPDEIYFKRLANATEALGRYPRASERKKFGLNMSKRRYPTLTDFINKAIELGYVEDFR | -0.373
HMKQQAYEQGKAAYQSGDWLRAVTQLGQVKEAGEKNGEVDHLLGNAYMKLGQFESAAYAYNSALEDVA | 0.269
HMKQTMIVVMEKDAPQSQIDDMVKRIEGLGLKAHTIVGTQRTVVAAIGEKREDTRESLAGSPGVAEVVPIL | 0.181
HMKQYVEPASETEKMVVELWEKVLLTEKIGMHDDFFELGGHSLKAMRLISLYHQEFNVRLSLKSLFEKLK | -0.121
HMKRAVGLDEYRDSIVLKKPEGYTEESYAAYKNAYDALMALDSKETTAEMFANAKSAFEAAQAGLVQKP | 0.101
HMKRIFEKKVVTESLNGLRLDKAAATLFADFSRNELGQWIKDEALLVNGKAKKVKEKVSEGDVLALDVELI | 0.0881
HMKRISDEDLLVMRRIDEVHTYHPTWGYRTITRILRRDDHLLINPKKVRRIMRDMGIYTIYPK | -0.039
HMKRITAVISQKKGRDYYYIIVSYYLSNGKRVQRWIKTEFPINGNNKRKLEQKRIEVLQEWQDKLV | -1.3
HMKRLQEQAYDYLKELILSGKMIENEIYSETKLASEIGISRTPIRDALQRLSQDGFIDIIPSKGFRIH | -0.134
HMKRMSKKQLSAVIEKYFSSQPGVTLTLKDIFRNLHLDTHPLKMIALDILEEMSWDDVIMKVSDTSYALNT | 0.281
HMKRNLESVLDHIEGIGPKRRKALYKHFGNLDAMRVAELEELESVEGMNKKAALAVYEFFRRNS | 0.254
HMKRNTKAEVLEILLNSGETPVSGERLAENLGISRNAVWKAVTALKEDGYNISAKRNSGYILNKS | -0.0063

Sequence | soluble fraction (log2)
HMKRREENLRRLALSTAERVKRKGKKEILNPMSPQERRIIHLTLQNNKEVVTHSEGEDPYRRVIISPRN | 0.00802
HMKRRSLQVGDIVQVRSLNVKGEVVSIGKNEVVVAVGRLQMRAGFDDLDFKERPKEEREVESV | -0.143
HMKRSFGSVRQLRSGNYQARYTGPDTVRHTSPVTYTSKMDAEAWLVDERRKISSGTWTPPAR | 0.0133
HMKRSVIVTAERAEVRQKADEGSALVFEAEKNVSLEYLEAAPGGWVKVRHLDGQSGFVRGNQI | -0.37
HMKRTKLEEATEWLRDRLSDGVKYNGEELLREGESADMARRTLRRAAQELGVIIERERGARGRWFWSLP | -0.515
HMKRTLLLEGRTIPYELTQKPVKNINIRVHADGSVRVSAGPWVSPEAVDAVLRQRSAFLLRALDQFAAQAP | -0.996
HMKRVPFAFAGDMLRWAAWLYHVEKRTQNEIAEELEVSRQTVANYLSEAMSQGLVQVQLRSDIIE | -1.52
HMKSAIGEEKAENFAFADLGMDPLSAEGVRTEFGFEQGQFVYKVYFTADGTEYEYWIKASDGSVVKKGMDL | -0.891
HMKSAIKQNILLYLSNKGVTSYEFYKISGVTRGILQQSNGISEDNIAKFLAYAPDVNIEWLLTGKGDMLKH | -1.32
HMKSATGKIPDFISDLPVDEFVRELIVTNAFQPLNKFKEVQNHIGSALKIYVDELTEKRANGTVHILYSHK | 0.077
HMKSAYADVAIAKVQDYVNVRAENNEDSEVLGKLYNNSAATVLETTDDGWYKISSGSVTGYVKSEYVVVG | 0.0784
HMKSEMYIDLSNALLKMSERDKELLTYRYTMEMSSKEISQITGIKESNVNSYIRRAREKLLKIFNAMNK | -3.04
HMKSFDERQAALNELAKVIEGTGRKAEQDAEFRREQNQLMIDKIDEQLKGDLTDSQREELKKERAALARK | 0.153
HMKSGLLNLSTRKQEKIKQALLSEFSNVSLLEAKVANIVTLAEISRGSFYTYFEDIYDAYQWLASI | -0.26
HMKSIFIRADELAAELDVSKALAYKMINQWNEELKAKGYTTVGGRVSRQYYYEKIYGAENVFDF | -2.37
HMKSILDDVVGLGPVRKKALLSAAGGFRKLRDMDVDEVIGLGAVPEEVAREVVTVLAQYNGERDRVEGL | -0.0545
HMKSILSEIPGIGPKKRKSLMMQFGSVKNISEASLKDLSSTKGINSNLSKEIFNFFSVEKNN | -0.0118
HMKSKNILLGEYKGKEVHVGEGKYGPFILYDKKFKSIGAYLTENSLMLKDLTIEDYSKIMKFTENSNSKS | -0.651
HMKSKNRLTKSYLDSIPGVGRKRKSILLRYFGSIDQIKRASSEDIANVPGIGKITSDLVYNYFNQ | -0.495
HMKSLAQELVDALGDRIRDGRLKVGDKLPSEAAIEAQYGVSRTVVREAISRLQAAGLVVTRHGIGTFIVGI | -0.804
HMKSLLDQINGIGAIRKRALLNHFGSARAVESASLDEIKSVEGVEAKVAKKIYNFFHEYKNMLR | -1.12
HMKSLLSRREQEVLELVSRGFSYSEIAELKNLSVHTIQTHIKSLYGKLEVHSKMEAVLEATRMGLLPQ | -1.8
HMKSSLAKNLETLMQERQISQTRLSKISGVSQSYIFKILNDQIKKPSLDTLEKLATALDSTVAQLNH | -0.00953
HMKSSTEIIYSDFLREVSNGQISEVTIQGDFVRGLFLSGSSFQTYAPKDSNLINILRDKKVRIKVHPP | -0.134
HMKSTELSIIEALRVLGLKHGASQDSIKKSYRRLVKQHHPDLGGSADSFRKVNEAYQLLIMN | -0.425

Sequence | soluble fraction (log2)
HMKSVILQLHPETLRWIREEAQADMADASVIQLLNDWELGTKKPTLSQVQKLSHETHIPFGYFFLKEKPA | -0.45
HMKSVQIPQSITVKEFSQAIEVSVADVIKKLMSMGVMVSQNKEINVDTAILVGEEFGVTVNVA | 0.0996
HMKSVTVIFKESGNVVSSKKLSVVATAQYVDKSRITAPAGYRIATTDSKLKISENNTVTVEVK | 0.212
HMKSYTYNPNYLSDYNAYRLGIPLEALERLQLHRSTGRYVNSLSDFQSVTGISDSLKHSLSSSLRFPN | -0.876
HMKTDLQIQQDVMAELKWEPKVNAAHIGVEVKHGVVTLSGHVDSFAEKWNAEQAAKRVAGVKFIAIELDV | -1.67
HMKTEIKSPLPGIVLKIFVRTGEYVDKNQRLFSLEAMKMENEIKAERAGVIAGIRISEGQSVLQDEVIMEM | -0.297
HMKTFQSYQTTSMSNVNLRKRANGTSTILKRIKVGDTVTVVGKSGNYYQIQFDGKEGYALIKYIDGTDSGA | -0.247
HMKTFSTRLIALREAIGVNQSELARRVGVTPQAVQKWESGANGPRGKRLEKLASELRSTVGYLVSGEGDG | -0.446
HMKTGAKLKNLRKMKKLSQEEVAKVLNLSYSTLSRWENDTRIPTYEDLFKLGQFYGVSVDYLSDPN | -0.359
HMKTGNIITVSLVWKGKYYMIRMFFPSASRPTRSDVQNEIEKVYPGSKLSTFSVSDYEPGQPLLQV | -1.16
HMKTGNPYAQRNTADMYNYGRGIEKDSYLAFVWYFAAYKQGNDNAKPQIDSITASGHLSPNQQLHAKIE | -0.464
HMKTIQVGSTVRVNQGAKTYSGGGLASFVYKRNHKVSQLQGDRAVITYEGTVVAAVHVSDLSLIH | -0.062
HMKTLELIAAIRKRIAGGYAGADGRLPNIGEIAKDFSVSPMTAQKAVRALVEAGVLTSTRRKGVFLKQPAS | -1.01
HMKTLGMDKGVNIALNDAGLRAEDVSNLSAHYDTEDGVPVYEIKFTAGGFSYEYQIKASDGTIIEADRDAA | -0.108
HMKTMAVYPVGTRVLTSDGEIGVVEKQNSEAPERPVIKILKGADGHDYEKPDFKDLMKILTLFIVDTI | 0.298
HMKTMSLSSIEKAIYKTKYENEPTSQRLSRIESSVFGTNFSQDSESERIARISSAINAQKSAK | 0.125
HMKTMTTIRKGSRGDTVATLQRKLNLIADGIFGPITDEAVRDFQKSHGLAVDGIVGPKTWAALGVGS | 0.0423
HMKTNQINVSGLSKEKNFEVLESLDVYKFYNLFFLNKIKIDQLINSYNHIDNYSVFKKYPSSLIVKLSE | 0.0996
HMKTPETSEYVVQAGDSLRRILTERYGAKEQDLPYLYRQFRLLNPKVSSLDNIHAGTKVRIPLVASVL | 0.132
HMKTPRKVFTVLIRNTEYDVYDIDGKEHQGYNDTPKTWWLYHSERLPEGMIPPIDSDSWKPYSVGT | -0.831
HMKTTKESLLEYIQREVFTDSIHKEGLSTNEIADAFQIQRSNVSSLLNTLVKEGKLEKTTGRPVLYRIPEK | 0.0655
HMKVEFDAMDKRILELMAKEYDTVLMARHLPLTPIVIDVRKKRIREVLNLPDATDAEIVIEAKEKDII | -0.322
HMKVEIVRVVKDIHIGDEITKDMVRTVEVGGYNLPDGVVKDTATVIGRFASADMVPGDYIISSKIADAP | -0.121
HMKVELSENEKIIYDLLSNQEVLLSEIKDKAELSNKAWDKSTKSLRKLGLVIVEKKDDNIYISKS | -0.362
HMKVGEIIKAKREELKIPLVNFAKELDISQGYLSQIENGIKTNPNLDIILKIIHRLDIDLAMLL | -1.32
